The numbers were not newly measured in article PMC4074225, which cites them from elsewhere.

The target in this data set is PCNA (Homo sapiens) (UniProt P12004). The experiment in a line: SPR.
Sequence of UniProt P12004 (P12004 whole entry): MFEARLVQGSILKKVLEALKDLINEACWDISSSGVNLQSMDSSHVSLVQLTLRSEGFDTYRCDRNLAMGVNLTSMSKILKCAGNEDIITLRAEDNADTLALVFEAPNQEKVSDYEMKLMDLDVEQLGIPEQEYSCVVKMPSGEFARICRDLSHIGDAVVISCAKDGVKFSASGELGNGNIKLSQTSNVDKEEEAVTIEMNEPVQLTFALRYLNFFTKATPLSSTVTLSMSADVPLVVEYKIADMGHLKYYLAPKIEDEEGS

Broadly, the Kd is the free concentration of one partner at which half of the binding sites on the other are occupied at equilibrium, for simple one-to-one binding. For the substance “DNA polymerase eta 694-713 (from UniProt Q9Y253)”, the Kd was 400 nM.
